Assay results from PMC8617079.
Read-outs that look alike come from different tables or passages of the source.

Key:
[1] = biological target: 26S proteasome (mouse (endogenous in striatum and hippocampus tissue)) (UniProt P62196); experiment: co-IP
[2] = biological target: 26S proteasome (mouse (endogenous in striatum and hippocampus tissue)) (UniProt P62196); experiment: co-IP; remark: listed apart in the source

Chain of UniProt P62196 (P62196 whole entry, looked up): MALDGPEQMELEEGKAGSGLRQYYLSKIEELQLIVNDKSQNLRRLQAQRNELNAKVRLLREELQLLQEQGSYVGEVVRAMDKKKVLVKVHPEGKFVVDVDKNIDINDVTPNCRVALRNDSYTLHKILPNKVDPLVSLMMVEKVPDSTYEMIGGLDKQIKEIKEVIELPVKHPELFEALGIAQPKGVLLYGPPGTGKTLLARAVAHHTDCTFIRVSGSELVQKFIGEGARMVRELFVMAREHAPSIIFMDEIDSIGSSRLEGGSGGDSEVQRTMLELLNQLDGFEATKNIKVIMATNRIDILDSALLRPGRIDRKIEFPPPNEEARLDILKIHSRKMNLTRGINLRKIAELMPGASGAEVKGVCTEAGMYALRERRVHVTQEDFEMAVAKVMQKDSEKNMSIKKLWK

gamma-enolase (ENO2) (from UniProt P17183 1-434) (natural protein)
pixel total of the Eno2 band [1]: 12400 pixels
pixel total of the Eno2 band [2]: 9430 pixels
